For the test, the target named is E. coli DnaK (Hsp70), unlabelled (E. coli, UniProt P0A6Y8 1-638). In words: fluorescence polarisation. In general terms: In fluorescence polarisation assays a small probe gives low polarisation when free and higher when bound to something large.

One may read the Kd as the constant that tells how readily two partners part at equilibrium.

No end group written: not given here. TMR = tetramethylrhodamine (5,6-carboxy TMR) linked to N-terminus

Sequence of E. coli DnaK (Hsp70), unlabelled (P0A6Y8 whole entry): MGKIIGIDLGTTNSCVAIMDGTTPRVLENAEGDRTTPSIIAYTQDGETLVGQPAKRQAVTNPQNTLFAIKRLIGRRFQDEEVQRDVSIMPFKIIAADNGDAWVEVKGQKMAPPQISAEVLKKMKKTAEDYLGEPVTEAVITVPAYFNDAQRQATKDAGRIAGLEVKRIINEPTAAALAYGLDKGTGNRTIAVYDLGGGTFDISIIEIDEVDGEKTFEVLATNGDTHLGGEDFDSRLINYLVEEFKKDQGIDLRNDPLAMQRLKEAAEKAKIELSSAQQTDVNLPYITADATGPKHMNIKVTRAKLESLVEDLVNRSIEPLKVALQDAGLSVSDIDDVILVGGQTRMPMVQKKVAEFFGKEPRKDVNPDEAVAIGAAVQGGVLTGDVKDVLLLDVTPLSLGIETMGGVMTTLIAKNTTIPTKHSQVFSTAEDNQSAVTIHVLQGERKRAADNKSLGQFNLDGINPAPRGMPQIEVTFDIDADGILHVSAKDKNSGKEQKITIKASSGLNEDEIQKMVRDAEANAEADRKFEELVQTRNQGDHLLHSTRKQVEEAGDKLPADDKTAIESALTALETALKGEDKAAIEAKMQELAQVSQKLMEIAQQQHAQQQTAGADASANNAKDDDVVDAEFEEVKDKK

As to {TMR}-KCNTATCATQRLANFLVHSSNNFGAILSSTNVGSNTY (ends and bridges not checked) [TMR-IAPP (human IAPP labelled with tetramethylrhodamine at the N-terminus)], the Kd was 2100 ± 900 nM.

The values are drawn from doi:10.1101/2020.03.30.016881 (bioRxiv, 2020).
